According to the Immune Epitope Database (IEDB):

Assays:
Assay in all cases: IEDB peptide-MHC binding, purified MHC/competitive/radioactivity; ≥ and ≤ were set here for values at or beyond the usual limits of such assays
Details in all cases: source organism: Bordetella pertussis
HLA-A*02:01 = molecular target: HLA-A*02:01
HLA-B*35:01 = molecular target: HLA-B*35:01
HLA-B*53:01 = molecular target: HLA-B*53:01
HLA-B*57:01 = molecular target: HLA-B*57:01
HLA-B*44:03 = molecular target: HLA-B*44:03
HLA-B*07:02 = molecular target: HLA-B*07:02

## ALANDGTIV
HLA-A*02:01
  IC50: ≥ 78.1 µM

## DATFQTYAL
HLA-B*35:01
  IC50: 17 µM
HLA-B*53:01
  IC50: 65.4 µM

## DHLTGRSCQ
HLA-B*57:01
  IC50: ≥ 70.4 µM

## EVAGALELS
HLA-B*35:01
  IC50: 69.9 µM

## FEGKPALEL
HLA-B*44:03
  IC50: ≥ 70.1 µM

## GAFDLKTTF
HLA-B*57:01
  IC50: 50.9 µM

## GKSLKKKNQ
HLA-B*35:01
  IC50: 69.9 µM

## KPLADIAVV
HLA-B*07:02
  IC50: 5.56 µM

## LALQAGDAL
HLA-B*35:01
  IC50: 31.5 µM

## MAAGHDATL
HLA-B*53:01
  IC50: 6.13 µM

## NITNKRAAL
HLA-B*07:02
  IC50: 22.9 µM

## PKPKPKPKA
HLA-B*35:01
  IC50: 69.9 µM

## RSRVRALSW
HLA-B*57:01
  IC50: 0.0584 µM

## VSSATKAKG
HLA-B*57:01
  IC50: ≥ 70.4 µM
